Peptide exchange data for 43 substances are collected here from patent US11390660B2, “Uterine cancer treatments” (Immatics Biotechnologies GmbH, priority 2016, dated 2022).

The target of the test is HLA-A*02:01 (Homo sapiens, UniProt P04439, D140Y/D185E/D98H/E176V/E277Q/G131W/G231S/I119V/I121R/I166T/I218V/L300P/L318F/N151K/N90K/P208A/P217A/Q86G/Q94H/R138H/R169H/T345S). The test is described as follows: MHC binding assay: UV-ligand exchange with β2m ELISA. The following applies: peptide exchange yield, binding to HLA-A*02:01. The text has this:
Candidate peptides for T cell based therapies according to the present invention were further tested for their MHC binding capacity (affinity). The individual peptide-MHC complexes were produced by UV-ligand exchange, where a UV-sensitive peptide is cleaved upon UV-irradiation, and exchanged with the peptide of interest as analyzed. Only peptide candidates that can effectively bind and stabilize the peptide-receptive MHC molecules prevent dissociation of the MHC complexes. To determine the yield of the exchange reaction, an ELISA was performed based on the detection of the light chain (β2m) of stabilized MHC complexes. The assay was performed as generally described in Rodenko et al. (Rodenko et al., 2006).
96 well MAXISorp plates (NUNC) were coated over night with 2 ug/ml streptavidin in PBS at room temperature, washed 4× and blocked for 1 h at 37° C. in 2% BSA containing blocking buffer. Refolded HLA-A*02:01/MLA-001 monomers served as standards, covering the range of 15-500 ng/ml. Peptide-MHC monomers of the UV-exchange reaction were diluted 100 fold in blocking buffer. Samples were incubated for 1 h at 37° C., washed four times, incubated with 2 ug/ml HRP conjugated anti-β2m for 1 h at 37° C., washed again and detected with TMB solution that is stopped with […]. Absorption was measured at 450 nm. Candidate peptides that show a high exchange yield (preferably higher than 50%, most preferred higher than 75%) are generally preferred for a generation and production of antibodies or fragments thereof, and/or T cell receptors or fragments thereof, as they show sufficient avidity to the MHC molecules and prevent dissociation of the MHC complexes.
For orientation: An ELISA detects its analyte on a solid surface through an enzyme-linked reagent.
Regarding “40 (GLLGGVIMMV; listed as Homo sapiens) [compound 40]”, the Peptide exchange entry is on record as “++++ (> 75% = ++++)”.

Turning to “52 (ALISEKLETL; listed as Homo sapiens) [compound 52]”, the Peptide exchange result is “+++ (>50 = +++)”.

“51 (TVPPVFVSV; listed as Homo sapiens) [compound 51]”: the Peptide exchange entry was “+++ (>50 = +++)”.

Take “5 (SLFDEVRQI; listed as Homo sapiens) [compound 5]”: the Peptide exchange entry was “++++ (> 75% = ++++)”.

Turning to “22 (VLVSSVLGV; listed as Homo sapiens) [compound 22]”, the Peptide exchange entry is on record as “+++ (>50 = +++)”.

Regarding “24 (ILDAQTAFV; listed as Homo sapiens) [compound 24]”, the Peptide exchange entry is “+++ (>50 = +++)”.

For “42 (FLSGYYVTL; listed as Homo sapiens) [compound 42]”, the Peptide exchange result is “++++ (> 75% = ++++)”.

For “8 (SVMELLQGV; listed as Homo sapiens) [compound 8]”, the Peptide exchange entry is given as “++++ (> 75% = ++++)”.

In the case of “43 (VIANEIEKV; listed as Homo sapiens) [compound 43]”, the Peptide exchange entry is “+++ (>50 = +++)”.

For the substance “21 (VLGPEGQLV; listed as Homo sapiens) [compound 21]”, the Peptide exchange result is “+++ (>50 = +++)”.

Take “45 (VLLHVSVLL; listed as Homo sapiens) [compound 45]”: the Peptide exchange result is “++ (>20% = ++)”.

As for “53 (VMHDSSFSV; listed as Homo sapiens) [compound 53]”, the Peptide exchange result was “++++ (> 75% = ++++)”.

Regarding “37 (VLLATVTEL; listed as Homo sapiens) [compound 37]”, the Peptide exchange result was “+++ (>50 = +++)”.

In the case of “17 (KLWEESTAQV; listed as Homo sapiens) [compound 17]”, the Peptide exchange result is “+++ (>50 = +++)”.

For “47 (GLVEQLYDL; listed as Homo sapiens) [compound 47]”, the Peptide exchange result is “+++ (>50 = +++)”.

With “25 (ILLELFTHV; listed as Homo sapiens) [compound 25]”, the Peptide exchange entry is “++++ (> 75% = ++++)”.

As to “28 (GLDEAIRKV; listed as Homo sapiens) [compound 28]”, the Peptide exchange result is reported as “+++ (>50 = +++)”.

As for “33 (SMTTNLDLKV; listed as Homo sapiens) [compound 33]”, the Peptide exchange entry is listed as “++ (>20% = ++)”.

As for “27 (VLNPETTVV; listed as Homo sapiens) [compound 27]”, the Peptide exchange entry is recorded as “+++ (>50 = +++)”.

“31 (ALLTAVTNV; listed as Homo sapiens) [compound 31]”: the Peptide exchange result was “+++ (>50 = +++)”.

“19 (YLETMNITL; listed as Homo sapiens) [compound 19]”: the Peptide exchange result is listed as “+++ (>50 = +++)”.

Regarding “36 (SLLSDIIAL; listed as Homo sapiens) [compound 36]”, the Peptide exchange result was “+++ (>50 = +++)”.

With “35 (TLLPTLYEI; listed as Homo sapiens) [compound 35]”, the Peptide exchange entry is listed as “+++ (>50 = +++)”.

As to “15 (GLLSVELRV; listed as Homo sapiens) [compound 15]”, the Peptide exchange entry was “++++ (> 75% = ++++)”.

As to “48 (ILAETQPEL; listed as Homo sapiens) [compound 48]”, the Peptide exchange result was “+++ (>50 = +++)”.

As for “32 (GLIENTYQL; listed as Homo sapiens) [compound 32]”, the Peptide exchange result is reported as “+++ (>50 = +++)”.

Take “44 (FLNGLEILL; listed as Homo sapiens) [compound 44]”: the Peptide exchange entry was “++++ (> 75% = ++++)”.

Consider “39 (ALDGKIYEL; listed as Homo sapiens) [compound 39]”, for which the Peptide exchange result is given as “+++ (>50 = +++)”.

“50 (TLSTVIATV; listed as Homo sapiens) [compound 50]”: the Peptide exchange entry is on record as “++++ (> 75% = ++++)”.

With “29 (IGIGPVLNI; listed as Homo sapiens) [compound 29]”, the Peptide exchange result is given as “+ (>10% = +)”.

With “26 (SVLAGVVGV; listed as Homo sapiens) [compound 26]”, the Peptide exchange entry is reported as “++++ (> 75% = ++++)”.

Turning to “4 (RLDIQGTGQLL; listed as Homo sapiens) [compound 4]”, the Peptide exchange result is reported as “+++ (>50 = +++)”.

In the case of “30 (TLLDRVAVI; listed as Homo sapiens) [compound 30]”, the Peptide exchange entry was “+++ (>50 = +++)”.

Turning to “54 (TLSDVVVGL; listed as Homo sapiens) [compound 54]”, the Peptide exchange entry is listed as “+++ (>50 = +++)”.

As for “49 (ALLELLHEL; listed as Homo sapiens) [compound 49]”, the Peptide exchange result was “++++ (> 75% = ++++)”.

In the case of “38 (RILDIDIPLSV; listed as Homo sapiens) [compound 38]”, the Peptide exchange entry was “+++ (>50 = +++)”.

Regarding “13 (ALQNKVVAL; listed as Homo sapiens) [compound 13]”, the Peptide exchange result is on record as “+++ (>50 = +++)”.

As for “11 (ALDPIIHGL; listed as Homo sapiens) [compound 11]”, the Peptide exchange entry is “++++ (> 75% = ++++)”.

Take “41 (YIDDIFSGV; listed as Homo sapiens) [compound 41]”: the Peptide exchange entry is recorded as “++++ (> 75% = ++++)”.

Turning to “12 (ALAPSEGVQAA; listed as Homo sapiens) [compound 12]”, the Peptide exchange entry was “++++ (> 75% = ++++)”.

As for “46 (NMDDVIYYV; listed as Homo sapiens) [compound 46]”, the Peptide exchange result is “+++ (>50 = +++)”.

Turning to “34 (AIAGRLLGV; listed as Homo sapiens) [compound 34]”, the Peptide exchange result is reported as “++++ (> 75% = ++++)”.

For the substance “16 (KLNSSIQYV; listed as Homo sapiens) [compound 16]”, the Peptide exchange entry was “+++ (>50 = +++)”.
